Data published in patent publication WO2014192202A1 (dated 2014).

Target: T1, human cardiac muscle-derived troponin I (human, UniProt P19429 2-210)
T1 construct: Immobilised on a CM5 chip at about 500 RU; also called troponin I derived from human myocardium; human myocardial troponin I
Experiment: SPR (Biacore T100), troponin I immobilised on CM5 chip, as in Example 1

T1 sequence (P19429 2-210 limits assumed): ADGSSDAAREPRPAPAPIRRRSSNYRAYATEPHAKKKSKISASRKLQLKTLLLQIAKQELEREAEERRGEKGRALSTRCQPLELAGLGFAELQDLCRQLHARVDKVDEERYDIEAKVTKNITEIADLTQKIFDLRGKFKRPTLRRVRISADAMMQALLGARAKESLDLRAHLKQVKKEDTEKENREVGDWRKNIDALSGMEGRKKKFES

binding result: binds
B1: wild type scFv antibody fragment (SEQ ID NO: 62) (scFv)
scFv: DIVMTQSPSSLAMSVGQKVTMSCKSSQSLLNSSNQKNYLAWYQQKPGQSPKLLVYFASTRESGVPDRFIGSGSGTDFTLTISSVQAEDLADYFCQQHYSTPLTFGAGTKLELKRGGGGSGGGGSGGGGSEVKLEESGGGLVKPGGTLKLSCAASGFTFSSYAMSWVRQTPEKRLDWVATISSGGSYIFYPDSVKGRFTISRDNARNTLYLQMNSLRSEDTAMYYCARHHNPDKSGFAYWGQGTLVTVSAAAALEHHHHHH
notes: also called wild scFv antibody fragment
